The values that follow come from patent US6147204, “Nucleic acid ligand complexes” (NeXstar Pharmaceuticals, Inc.).

Data set [1] deals with T1, bFGF (basic fibroblast growth factor) (UniProt P09038 P09038:143-288). Description: binding affinity stated as 1 nM. The settings on record: blunt-ended hairpin, Tm 68 C.
Data set [2] concerns the target T1, bFGF (basic fibroblast growth factor). Description: 5'-32P binding assay; same affinity as unconjugated 225T3. The settings on record: label: 5'-32P; hairpin. The procedure:
Preparation and Functional Properties of PEG Conjugated and Cholesterol-Derivatized Nucleic Acid Ligands A PEG 3400 conjugate of a Nucleic Acid Ligand retains the binding affinity of the non-conjugated molecule The ability of a bFGF ligand/PEG-3400 conjugate to bind bFGF was tested. Molecule 225T3 (SEQ ID NO: 10), a high affinity DNA ligand to bFGF, was chosen for conjugation with PEG via a primary amine-NHS coupling reaction. […] Ligand 225T3 was modified with a 3'-amino-modifier C7 CPG (Glen Research, Sterling, Va.) using standard DNA synthesis methods and will be referred to as 225T3N (SEQ ID NO:11). 225T3N was reacted with the N-hydroxysuccinimidyl (NHS) active ester of PEG (avg. MW 3400) in 20% (v/v) […] 80% (v/v) 0.5 M sodium bicarbonate buffered at pH 8.5. The resulting conjugate, 225T3N-PEG-3400 (SEQ ID NO: 14), was purified from the free DNA on a 12% polyacrylimide/7 M urea gel. The conjugate was 5' end-labeled with ^32P and a binding assay was performed.

Data set [3] shares this target. Description: 5'-32P binding assay; identical to 225T3. The settings on record: label: 5'-32P; hairpin.
Data set [4] addresses T2, VEGF (vascular endothelial growth factor) (UniProt P15692-4 P15692-4:27-191). Description: competition; ED50, competition ELISA against biotin-labeled VEGF ligand on immobilized VEGF; printed 10^-9 M. The settings on record: chain copies: 2. (ELISA stands for enzyme-linked immunosorbent assay.)
The target of data set [5] is T2, VEGF (vascular endothelial growth …). Description: competition; apparent ED50, competition ELISA; printed 10^-7 M. To be noted: chain copies: 2. On the procedure: (§1) NX278-Liposome Complex was prepared by incubating NX-278 (1 mg) (FIG. 1N; SEQ ID NO: 19) with of a mixture of DSPC:cholesterol (50 mg) in 10 mM phosphate (pH 7.4) buffer containing 9% sucrose and sonicated for 15–30 min using a probe-type sonicator until opalescent solution was obtained. The control Nucleic Acid Ligand-Liposome Complex containing a sequence scrambled analog of ligand NX-278 (scNX278) (FIG. 1W; SEQ ID NO:28) was prepared in the same manner. The size of Liposome particles (typically […]), determined in a particle analyzer (Leeds & Northrup Model Microtrack UPA 150, Horsham, Pa.) was similar to those obtained in the absence of the Nucleic Acid Ligand.

For data set [6] the target is unchanged. Description: cell_activity; inhibition of HUVEC proliferation with 10 ng/ml VEGF; KS cells (KSY-1) IC50 about 100 nM. The settings on record: chain copies: 2. The procedure: The effects of NX278-liposome, scNX278-liposome and NX213 on the proliferation of human umbilical vein endothelial cells (HUVEC) and Kaposi's Sarcoma (KS) cells in tissue culture were examined. HUVECs were grown in the presence of VEGF (10 ng/ml) in IMDM:Ham's F12 (1:1) medium containing 10% fetal calf serum (FCS) and heparin (45 μg/ml). Cells were plated in 24-well gelatin-coated plates at a density of 20,000 cells per well on day zero and treated with the above ligands at concentrations between 0.1 nM to 1 μM on days 1, 2, and 3 (replacing the media along with the ligands). Cell count was performed on day 4. KS cell line KSY-1 was plated in 24-well gelatin coated plates at a density of 7,500–10,000 cells per well on day zero in medium containing RPMI 1640 supplemented with 2% FCS, L-glutamine, penicillin and streptomycin. Nucleic Acid Ligands were added at concentrations between 0.1 nM to 1 μM in fresh medium on day 1, 2, and 3 and the cell count was performed on day 4.

Data set [7] shares this target. Description: competition; not an effective competitor up to 2 uM. To be noted: chain copies: 2. On the procedure:
as §1

Data set [8] has the same target. Description: 1 uM not inhibitory in guinea pig Miles assay. The settings on record: chain copies: 2. The source says: The ability of NX278-liposome to inhibit the vascular permeability activity of VEGF in vivo was examined.

T1 sequence (P09038 143-288, one chain of several): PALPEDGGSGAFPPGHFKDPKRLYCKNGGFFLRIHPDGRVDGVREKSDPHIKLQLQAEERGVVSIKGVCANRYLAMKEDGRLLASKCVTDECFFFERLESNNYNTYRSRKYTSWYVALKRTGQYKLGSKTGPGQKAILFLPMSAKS
T2 sequence (P15692 other isoform, or with tags, fused parts or gaps): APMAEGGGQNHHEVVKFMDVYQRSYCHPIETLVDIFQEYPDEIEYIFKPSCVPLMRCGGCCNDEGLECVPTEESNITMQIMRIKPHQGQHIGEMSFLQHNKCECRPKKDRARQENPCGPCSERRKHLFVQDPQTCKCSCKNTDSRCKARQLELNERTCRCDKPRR

B1: 225T3 (ssDNA)
DNA: GCGGGGCTACGTACCGGGGCTTTGTAAAACCCCGC
Usually Kd stands for the free concentration of one partner at which half of the binding sites on the other are occupied at equilibrium, for simple one-to-one binding. Read a high Kd as weaker binding. Turning to B1, in data set [1], the affinity, expressed as Kd, was 1 nM.

B2: 225T3N-PEG-3400 (ssDNA)
DNA: GCGGGGCTACGTACCGGGGCTTTGTAAAACCCCGC
modifications: 3'-amino modifier C7 coupled to PEG (avg. MW 3400)
In data set [2], B2 displayed a Kd of 1 nM. In other words, the single-digit nanomolar range.

B3: 225T3-Cholesterol (ssDNA)
DNA: GCGGGGCTACGTACCGGGGCTTTGTAAAACCCCGC
modifications: 3'-tetraethyleneglycol cholesterol
Regarding B3, binding in data set [3] was characterised by a dissociation constant (Kd) of 1 nM.

B4: NX213 (mixed)
mixed: TTTTACCCUGAUGGUAGACGCCGGGGUGTTTTT
In general, EC50 refers to the concentration at which the effect is half-maximal. B4 gave an EC50 in data set [4] of about 1 nM.

B5: NX278-liposome (mixed)
mixed: TTTTACCCUGAUGGUAGACGCCGGGGUGTTTTT
modifications: 5'-dialkylglycerol (DAG), embedded in DSPC:cholesterol liposome
The IC50 is the midpoint of a concentration-inhibition curve. Read a low IC50 as greater potency in that assay. B5: the EC50 in data set [5] was about 100 nM. This molecule returned an IC50 in data set [6] of about 300 nM.

B6: scNX278-liposome (mixed)
mixed: TTTTGUCGGUACGGAGUGGACCGUCACGTTTTT
modifications: dialkylglycerol (DAG), embedded in DSPC:cholesterol liposome
Molecule B6 came in with an EC50 in data set [7] of over 2000 nM. For the same molecule, in data set [8], the binding result is “no binding”.
